# The DeepSol protein solubility set
# Experiment: soluble on expression in E. coli; label from the status in PepcDB or PDB records
row,Sequence,soluble on expression in E. coli
1,MGSDKIHHHHHHAQSKSSVYKPWSHGQLKVSKENRYLMNADGTPFFWLGDTGWLLPEKLNRDEAAYYLEHCRQAGFNVVQVQTINGVPAMNFYGQYSMIDGFNFKNIDRKGVYGYWDHMDYIIQKAEQNGIYIAMVCIWGGLVRSGKMNVEEAKAYGRFLGERYKDAPNIIWVIGGDTYADRNTEIWEALANSILAVDENHIMTFHPFGRTSSATHLNNKEWMDMNMFQSGHRRYGQKKGDGDTSVTGLEEDNWRYVEEALSMTPLKPVLDAEPSYEGIPQGLHDPAQPRWRDCDVRRYGYWSVFAGSCGHTYGHNNIMQFLKPGTPGGYGADGIEKPWYKAMQDPGFNQMKYLKNLMLTFPYFERVPDQSVIAGTNGNRYDRAIATRGKDYLLVYNYSGNPMSVDLTKISGAKKKVWWYSPKDGKLSFIGEFDSKITPFTYDGSYNRDNDQVLIAIDSSKNYISTEWLELPMVNQ,not soluble
2,MTDHSIRSRALGAYLGLACGDALGATVEFLTKGEIAHQYGVHKHIKGGGWLKLPAGQVTDDTEMSIHLGRAILAAPEWDARRAAEEFAVWLKGVPVDVGDTTRRGIRRFIMHGTLSEPESEYHAGNGAAMRNLPVALATLGDDAAFERWTVEQAHITHCNAMSDAATLTLGHMVRRLVLGGDVRDVRDESNKLIAKHRQFKFQPYRGLATAYIVDTMQTVMHYYFQTDSVESCVVETVNQGGDADTTGAIAGMLAGATYGVETIPPRWLRKLDRDVYNEICAQVDGLLARAPALKQG,soluble
3,SAGTGLVAGEVVVDALPYFDQGYEAPGVREAAAALVEEETRRYRPTKNYLSYLTAPDYSAFETDIMRNEFERLAARQPIELLSMKRYELPAPSSGQKNDITAWQECVNNSMAQLEHQAVRIENLELMSQHGCNAWKVYNENLVHMIEHAQKELQKLRKHIQDLNWQRKNMQLTAGSKLREMESNWVSLVSKNYEIERTIVQLENEIYQIKQQHGEANKENIRQDF,soluble
4,MYTPVSKSTKSNKNRSSLDKILDAKKPVNLLILGTDTGAEGRSVKNYHGLTDLMMFVTVNPSKKQTRVTTIARDSKVNLPDYPEVSPIKLNSAYSLGGVSETIKTLDKYYSVPIDGYVLVNWASTMKIITKMGGVDVISPLTFDNMGYSFKKGQMYHISGKKALAFVQLRHGDPRQDYGRQERERLVMMAAIKKSVSYKTILNSSFMQSLGDSMQTDLSLNDMIKLAMNYQGVTDNVKSDYAQGKSSSVNNLEHHHHHH,soluble
5,MPKISSRDGGRPAQRTVNPIIVTRRGKIARLESGLTPQEAQIEDLVFLRKVLNRADIPYLLIRNHKNRPVLAINIELRAGLERALAAACATEPMYAKTIDEPGLSPVLVATDGLSQLVDPRVVRLYRRRIAPGGFRYGPAFGVELQFWVYEETVIRCPVENSLSRKVLPRNEITPTNVKLYGYKWPTLDGMFAPHASDVVFDIDMVFSWVDGSDPEFRARRMAQMSQYVVGEGDDAEARIRQIDELKYALRSVNMFAPWIRRIFIATDSTPPPWLAEHPKITIVRAEDHFSDRSALPTYNSHAVESQLHHIPGLSEHFLYSNDDMFFGRPLKASMFFSPGGVTRFIEAKTRIGLGANNPARSGFENAARVNRQLLFDRFGQVITRHLEHTAVPLRKSVLIEMEREFPEEFARTAASPFRSDTDISVTNSFYHYYALMTGRAVPQEKAKVLYVDTTSYAGLRLLPKLRKHRGYDFFCLNDGSFPEVPAAQRAERVVSFLERYFPIPAPWEKIAADVSRRDFAVPRTSAPSEGA,soluble
6,MGSDKIHHHHHHLANLGFDFSPDFRPLAARMRPRVLSEYIGQSHLLGEGKALRVALEANRAHSMLLWGPPGTGKTTLAELIAHYANAHVERISAVSSGVKDIRAAIEQAKAVAQSRGQRTLLFVDEVHRFNKSQQDAFLPYIEDGTVIFVGATTENPSFELNNALLSRARVYLIHKLTETEITEIIIQALEDTERGLGKRQLIIPPEVMAELTHVSDGDARKALNLIELMSDLVADGDAVNLEMLSQVVGHKAAGYDKNGDQFYDLISAVHKSIRGSAPDAALYWFCRILEGGGDPLYVARRLLAIASEDIGNADPVAMTVALNAWDCFHRVGPAEGERAIAQAVLYLASAPKSNAVYTAFSAARELAHATGHEAVPNHLRNAPTKLMKTLAVGEGYRYAHDEPNAYAAGECYLPPSLEGQQFYQPTERGFEKRIKEKLAQLNQLDGHSRVKRYD,not soluble
7,DGSPAATPEIRVNHEPEPAGGATPGATLPKSPSQLRKGPPVPPPPKHTPSKEVKQEQILSLFEDTFVPEISVTTPSQPAEASEVAGGTQPAAGAQEPGETAASEAASSSLPAVVVETFPATVNGTVEGGSGAGRLDLPPGFMFKVQAQHDYTATDTDELQLKAGDVVLVIPFQNPEEQDEGWLMGVKESDWNQHKKLEKCRGVFPENFTERVP,soluble
8,TKNNQQTTPQTNHFNVADPVNKVPNWRKLGPETQRELRDLLYPLDDTGYFIYKYGAISRYLQSQKELDELVDYRTVLPSTQKHFKYDSFNQSVLESKLRKWLMKAIKQHPYFQHFEFDPVLKAQYNINIPAQKITVNAVWFYKKDNDLTTGKPIRYWDQFEIKLKQ,soluble
9,MPVVKVRENEPFDVALRRFKRSCEKAGILSEVRRREHYEKPTTVRKRAKAAAQKRHAKKLSRENARRVRLYLEHHHHHH,not soluble
10,MGSDKIHHHHHHMKSTIYKALIGATLIIGLSSCVNNWLDVEPGDQVEADEAVTTSADLSSVRAGMYQIIKGTSDFKDYYAARMFYYGEVRGEDMQTEKSGSRSQLCYDMTYSTADNAPSIWQTPYIVIGRANRIIEAAESGKLTDKEEAADIIAQYAAEAKVARAMAHFDLVRVYGKTYTAPDAPNSLGIPVVTTVLGSDSKLIRNTVSEVYTQVIKDLNEAINSKALSESSTPGYINLWAAKALLSRVYLTQGDNQKSLDVAEDIIKNSPYKLWKNEEYVGAWSKISGVHSNEMLFEIAITGSTDWTDREGIAYLYNEDGYADIIATKKFLDLLNEDPNDVRLGVFLAPTTKDFKKLYGTNTVFLNKYPADGLSDLRYNNVPLVRLSEVYLNAAEAAAKLGNQNDKAVEYLDAIVKRANPNKTVKGTTVTVDRVLLERRKELIGEGHRFFDAMRNNETVIRYTSKEDQGWQQALKEEARSFNRDFYKTLLPIPQDEIDANPSMKDQQNTGY,not soluble
11,MPKIPITLITGFLGSGKTSFLSEYLNQTDHQGVALIINEIGQAALDQRILSVQYCGEKMLYLNAGCVCCNKRLDLVESLKATLNNYEWHGEILRRIIIETTGLANPAPILWTILSDTFLGVHFEIQSVVACVDALNAREHLTNNEAKEQIVFADSVLLTKTDLQNDSAALTKLKERIQALNPSAEIFDKRAIDYESLFSRKNRARNFMPLEHHHHHH,not soluble
12,MADNWGSENVVADAAPATEAPEVALFGKWSLQSVNVSDISLVDYIPVKEKSAKYLPHSAGRFQVRRFRKAACPIVERLANSLMMHGRNNGKKLMTVRIVKHAFEIIYLLTGENPVQVLVNAVINSGPREDSTRIGRAGTVRRQAVDVAPLRRVNQAIWLLCTGAREAAFRNVKTIAECLADELINAAKGSSNSYAIKKKDELERVAKSNR,not soluble
13,MGSDKIHHHHHHMEDREQLYTLLAQKDWDAIGKIIYKNKKAKKQDPFLTQVTTFFEAEFFEFTRPLPPAERAKQFEHTNLIIELGQHGFSQAFVDNFVDERLKLMQETQHSALLNYAQTYQHRPLAQRIIASFINTKPEAVAASLRENMTIRATDVQPGKAKTIRLFKSKQEEHFYEAVRRVFPTYHPYPNVALSCVLDYQAIKDSLSEQAKSYFFKAIIDSVVFDVGSGYEPKYFIELDSNFHDAAQAQANDKMKDDIFRAANTKLIRIRPLNSKASSIEEFEKLVREVMRQL,not soluble
14,MGSDKIHHHHHHMVVALQYRTDLLEIHRFTRFESSLAHLGFRHFQPLASLRPWVHRYFHLQVATNLPQSIEQTFYPDGGTSLQFYFPAPSLNTNSDEPKVVFHCGQSLHSHAFVPGIEQMIVRFHPGGAFHLLGIAVQEIQQTSSHTVIEATQLHLPGLNQLLSQLADTNQPMQRIAQLEQWLLQLIKPQLDRGTWSTAGIVQMSLPRLIQPQTRLENFYGQLALSRRQFERRFKQETGLSPAQLQQLNRVKIARDLLSQSPELNLAQVAFDCGFYDQAHLHQHFVRVTQQTPGQYKKRKMSQISNLTQR,not soluble
15,MNSLPVAIIGGGPVGLAAAAHLAVRDVPFVLFEGKSEVGASILEWKHVSLFSPWKYNIDRAAKSLLEKESWKEPAGDRLPTGEQLVRDYLQPLAETKALKPYIYTNAPVQSIYRKGIDKIKDHNRENTPFIIRYKQDNDQKTLRARAVIDATGTWFSPNPIGAGGVPAIGEEEAKDSIYYGIPDVKGKDRSRYEGKTILVVGSGHSAIHTLLDLAQLKEAAPSTRILWAIRRNSPNGLFGGGQEDALPARGQLGLALEALLSKQKVELISSFEMEQIDRVEGRLSVVGVQNESPISLPLVDEIVANTGARPTVDYHRDIRYQLDSKLESVPALAPLIDPNIHSCGTVRPHGEKELRQPEKNFYIAGVKSYGRAPTFLLATGYEQVRSIVASLAGSKKEAERVELQLPKTGVCKSDFLAKRSCCLEHHHHHH,soluble
16,MFKRFRRLRLNENLRSMVRENSLSVNDLIYPLFVVNGTGIKKEISSMPDVFQMSLDEILKECQNVVNLGIKAIILFGVLENEKKDSCGSDALDDEGLVARSIREIKKNFPDLFIISDLCFCEYTDHGHCGIIDPKIKSVDNDATLEISAKQALVHARAGVDMIAPSGMMDGVITTLRKALDKEGFENLPIMAYSTKFASSYYGPFRDVAESAPSYGDRKSYQMDFANGKEALEESLEDEAQGADILMVKPALAYLDVVKEISLHSNLPLCIYNVSGEYAMLKAAKNAGVIDYEKVLYETIIAFKRAGAKLIITYHAKELAKMLKGEK,soluble
17,MSQANANFLDNSKVSANKTAESGQLKEFRTPPHNLAIEQAVLAALMTVAESFEQVNDLLKENDFYATRHKYIFRAIEKLAQENSPYDAVLVNDWLLKQNLLDAIGGEEYLMQLMADSPSSFYNLETYASKIKEFSTLRSMIKVSSDILQNAYDTKGRPVSEILDLAETSIFSLAEQHNNNKKDAGPKSISSVTADVISKLDELSKLDGNITGLTTGFLELDNKTYGMQSGDMIIVAARPSMGKTTFAMNLVESVLFNCNLPALVFSMEMPADSIAMRLISSYGKVHQGHLRSGKLDGDEWSKVTGTILQLQEKHLYIDDSSALPPTELRARARRIAKQHGGKLGCIMIDYLQLMKVPGMGDNRVGEIGEISRSLKALAKEMDCPVIALSQLNRSLENRPNKRPVMSDLRESGAIEQDADLIMFIYRDEVYNKESKEAGTAEIIIGKQRNGPIGTVRLAFEGQYTRFSNLSPEYYSQYDDEE,not soluble
18,MAGDPMSLPGLSAAADQTIKIGAQSMSESEIIASMLGQLIEHHTDLKTTTIKNLGSNAVQQQALMNGEIDIAATRYTGDALTGTLRMEPEKDPDKALALTQREFKKRYDLKWYDSYGFDNTYAFTVSKELADQYHLETVSDVKKWAPQLKLGVDNYWMKLKGNGYQDFTKTYGMTFGGTYPMQIGLVYDAVKSGKMDIVLAYSTDGRIKSYGLKMLKDDKQFFPPYDCSPVVPEKVLKEHPELEGIIKKMLGKIDTATMQELNYEVDGNLKEPSVVAKEYLEKHRYFESLEHHHHHH,soluble
19,TLTSTLASMMDALETALQPLKKYGFPVESVVLAFSLTLRLLPLMLNTVNEVLDARKARGVAFSLTALGTPVMIRSINRARSIADALMARGAGD,not soluble
20,MQAAVTVTPARLPELLLGLATVRPVFLWGAPGIGKSSLVRNFADSLGLECVSLLGTQLAPEDLIGVPQIRDGRSVFCPPESIARDEPYCLFLDELNAATPDVQKAFYSLILDRRIGNYELPKGSLVIGAGNRATDNALARPIASALVNRLTHVHLDASAKDWLVWAGENGIHPWITDHLTDRPDHLWSKPPKTEEPFSTPRSWHMLSDALHSFGQDLDEETLKVLAHGTLTPAHATAFCGYVKIVRSRFGIEAILKGEARWPSRIEDRDLLYYLAESFRGRLVKELPASKEHMSANGRQTAYRAKSLLVQLAEISVEVAQSVIASDADGNPLLPAWFLVEAARDMPRLVEARRLEHHHHHH,not soluble
